B1: KAT8 regulatory NSL complex subunit 2, residues 28 to 91; numbered along this chain, Q9H9L4 (parent)
chain: CAFTHRPCSHPRLEGQEFCIKHILEDKNAPFKQCSYISTKNGKRCPNAAPKPEKKDGVSFCAEH

± gives the uncertainty stated by the source.

The series covers variants of B1. As to the kind of experiment: abundance fitness (aPCA) (normalised: wild type 0, dead -1); higher = more abundant; growth selection in yeast, the domain comes from the species named. The settings on record: Homo sapiens.
With CAFTHRPYSHPRLEGQEFCIKHILEDKNAPFKQCSYISTKNGKRCPNAAPKPEKKDGVSFCAEH [C8Y], the abundance fitness is -1.07 ± 0.073. Under CAFTHRPVSHPRLEGQEFCIKHILEDKNAPFKQCSYISTKNGKRCPNAAPKPEKKDGVSFCAEH [C8V] stands -0.949 ± 0.058.

Consider CAFTHRPWSHPRLEGQEFCIKHILEDKNAPFKQCSYISTKNGKRCPNAAPKPEKKDGVSFCAEH [C8W], for which the abundance fitness is -1.24 ± 0.093. The figure for CAFTHRPMSHPRLEGQEFCIKHILEDKNAPFKQCSYISTKNGKRCPNAAPKPEKKDGVSFCAEH [C8M] is -0.937 ± 0.084.

Consider CAFTHRPPSHPRLEGQEFCIKHILEDKNAPFKQCSYISTKNGKRCPNAAPKPEKKDGVSFCAEH [C8P], for which the abundance fitness was -0.874 ± 0.086. The figure for CAFTHRPSSHPRLEGQEFCIKHILEDKNAPFKQCSYISTKNGKRCPNAAPKPEKKDGVSFCAEH [C8S] is -0.891 ± 0.059; for CAFTHRPCSEPRLEGQEFCIKHILEDKNAPFKQCSYISTKNGKRCPNAAPKPEKKDGVSFCAEH [H10E] it is -0.038 ± 0.077; for CAFTHRPCSMPRLEGQEFCIKHILEDKNAPFKQCSYISTKNGKRCPNAAPKPEKKDGVSFCAEH [H10M] it is -0.047 ± 0.061. The figure for CAFTHRPCSCPRLEGQEFCIKHILEDKNAPFKQCSYISTKNGKRCPNAAPKPEKKDGVSFCAEH [H10C] is -0.015 ± 0.097; for CAFTHRPCSRPRLEGQEFCIKHILEDKNAPFKQCSYISTKNGKRCPNAAPKPEKKDGVSFCAEH [H10R] it is -0.064 ± 0.045.

As to CAFTHRPCSIPRLEGQEFCIKHILEDKNAPFKQCSYISTKNGKRCPNAAPKPEKKDGVSFCAEH [H10I], the abundance fitness is -0.013 ± 0.13. As for CAFTHRPCSLPRLEGQEFCIKHILEDKNAPFKQCSYISTKNGKRCPNAAPKPEKKDGVSFCAEH [H10L], the abundance fitness was -0.103 ± 0.047. As to CAFTHRPCSSPRLEGQEFCIKHILEDKNAPFKQCSYISTKNGKRCPNAAPKPEKKDGVSFCAEH [H10S], the abundance fitness is -0.042 ± 0.061.

For CAFTHRPCSTPRLEGQEFCIKHILEDKNAPFKQCSYISTKNGKRCPNAAPKPEKKDGVSFCAEH [H10T], the abundance fitness is -0.11 ± 0.056. Turning to CAFTHRPCSFPRLEGQEFCIKHILEDKNAPFKQCSYISTKNGKRCPNAAPKPEKKDGVSFCAEH [H10F], the abundance fitness is -0.076 ± 0.1.

As to CAFTHRPCSAPRLEGQEFCIKHILEDKNAPFKQCSYISTKNGKRCPNAAPKPEKKDGVSFCAEH [H10A], the abundance fitness was -0.126 ± 0.066. Under CAFTHRPCSWPRLEGQEFCIKHILEDKNAPFKQCSYISTKNGKRCPNAAPKPEKKDGVSFCAEH [H10W] stands -0.127 ± 0.068; under CAFTHRPCSKPRLEGQEFCIKHILEDKNAPFKQCSYISTKNGKRCPNAAPKPEKKDGVSFCAEH [H10K], -0.113 ± 0.08; under CAFTHRPCSQPRLEGQEFCIKHILEDKNAPFKQCSYISTKNGKRCPNAAPKPEKKDGVSFCAEH [H10Q], -0.078 ± 0.086.

On to CAFTHRPCSGPRLEGQEFCIKHILEDKNAPFKQCSYISTKNGKRCPNAAPKPEKKDGVSFCAEH [H10G], for which the abundance fitness is -0.01 ± 0.066. The figure for CAFTHRPCSDPRLEGQEFCIKHILEDKNAPFKQCSYISTKNGKRCPNAAPKPEKKDGVSFCAEH [H10D] is -0.28 ± 0.18; for CAFTHRPCSPPRLEGQEFCIKHILEDKNAPFKQCSYISTKNGKRCPNAAPKPEKKDGVSFCAEH [H10P] it is -1.12 ± 0.12. Consider CAFTHRPCSVPRLEGQEFCIKHILEDKNAPFKQCSYISTKNGKRCPNAAPKPEKKDGVSFCAEH [H10V], for which the abundance fitness was -0.149 ± 0.06.

Consider CAFTHRPCSYPRLEGQEFCIKHILEDKNAPFKQCSYISTKNGKRCPNAAPKPEKKDGVSFCAEH [H10Y], for which the abundance fitness was -0.041 ± 0.079. The figure for CAFTHRPCSHPNLEGQEFCIKHILEDKNAPFKQCSYISTKNGKRCPNAAPKPEKKDGVSFCAEH [R12N] is -0.279 ± 0.084; for CAFTHRPCSHPDLEGQEFCIKHILEDKNAPFKQCSYISTKNGKRCPNAAPKPEKKDGVSFCAEH [R12D] it is -0.93 ± 0.22. The figure for CAFTHRPCSHPSLEGQEFCIKHILEDKNAPFKQCSYISTKNGKRCPNAAPKPEKKDGVSFCAEH [R12S] is -0.106 ± 0.057; for CAFTHRPCSHPWLEGQEFCIKHILEDKNAPFKQCSYISTKNGKRCPNAAPKPEKKDGVSFCAEH [R12W] it is -1.22 ± 0.19; for CAFTHRPCSHPILEGQEFCIKHILEDKNAPFKQCSYISTKNGKRCPNAAPKPEKKDGVSFCAEH [R12I] it is -0.234 ± 0.096. Under CAFTHRPCSHPHLEGQEFCIKHILEDKNAPFKQCSYISTKNGKRCPNAAPKPEKKDGVSFCAEH [R12H] stands -0.308 ± 0.066; under CAFTHRPCSHPYLEGQEFCIKHILEDKNAPFKQCSYISTKNGKRCPNAAPKPEKKDGVSFCAEH [R12Y], -0.787 ± 0.082.

Take CAFTHRPCSHPMLEGQEFCIKHILEDKNAPFKQCSYISTKNGKRCPNAAPKPEKKDGVSFCAEH [R12M]: the abundance fitness was -0.47 ± 0.18. Under CAFTHRPCSHPFLEGQEFCIKHILEDKNAPFKQCSYISTKNGKRCPNAAPKPEKKDGVSFCAEH [R12F] stands -0.77 ± 0.066; under CAFTHRPCSHPQLEGQEFCIKHILEDKNAPFKQCSYISTKNGKRCPNAAPKPEKKDGVSFCAEH [R12Q], -0.561 ± 0.25. Under CAFTHRPCSHPVLEGQEFCIKHILEDKNAPFKQCSYISTKNGKRCPNAAPKPEKKDGVSFCAEH [R12V] stands -0.066 ± 0.08. Under CAFTHRPCSHPELEGQEFCIKHILEDKNAPFKQCSYISTKNGKRCPNAAPKPEKKDGVSFCAEH [R12E] stands -0.674 ± 0.13.

As to CAFTHRPCSHPLLEGQEFCIKHILEDKNAPFKQCSYISTKNGKRCPNAAPKPEKKDGVSFCAEH [R12L], the abundance fitness is -0.27 ± 0.06. Under CAFTHRPCSHPGLEGQEFCIKHILEDKNAPFKQCSYISTKNGKRCPNAAPKPEKKDGVSFCAEH [R12G] stands -0.652 ± 0.074; under CAFTHRPCSHPALEGQEFCIKHILEDKNAPFKQCSYISTKNGKRCPNAAPKPEKKDGVSFCAEH [R12A], -0.055 ± 0.077; under CAFTHRPCSHPTLEGQEFCIKHILEDKNAPFKQCSYISTKNGKRCPNAAPKPEKKDGVSFCAEH [R12T], -0.103 ± 0.067. Under CAFTHRPCSHPPLEGQEFCIKHILEDKNAPFKQCSYISTKNGKRCPNAAPKPEKKDGVSFCAEH [R12P] stands -0.147 ± 0.077.

CAFTHRPCSHPKLEGQEFCIKHILEDKNAPFKQCSYISTKNGKRCPNAAPKPEKKDGVSFCAEH [R12K]: the abundance fitness was -0.325 ± 0.2.
